US20100323957A1, “NOVEL ASSAY FOR INHIBITORS OF EGFR” (THE REGENTS OF THE UNIVERSITY OF CALIFORNIA THE OFFICE OF …, priority 2007, published 2010)
Numbering of substitutions follows the chain as printed. Numbers in names are those of the source.

B1: MIG6(M346A): full-length MIG6 with M346A mutation in segment 1, co-expressed in cells (protein)
chain: MSIAGVAAQEIRVPLKTGFLHNGRAMGNMRKTYWSSRSEFKNNFLNIDPITMAYSLNSSAQERLIPLGHASKSAPMNGHCFAENGPSQKSSLPPLLIPPSENLGPHEEDQVVCGFKKLTVNGVCASTPPLTPIKNSPSLFPCAPLCERGSRPLPPLPISEALSLDDTDCEVEFLTSSDTDFLLEDSTLSDFKYDVPGRRSFRGCGQINYAYFDTPAVSAADLSYVSDQNGGVPDPNPPPPQTHRRLRRSHSGPAGSFNKPAIRISNCCIHRASPNSDEDKPEVPPRVPIPPRPVKPDYRRWSAEVTSSTYSDEDRPPKVPPREPLSPSNSRTPSPKSLPSYLNGVAPPTQSFAPDPKYVSSKALQRQNSEGSASKVPCILPIIENGKKVSSTHYYLLPERPPYLDKYEKFFREAEETNGGAQIQPLPADCGISSATEKPDSKTKMDLGGHVKRKHLSYVVSP
modifications: left off: small tags and cut ends
notes: full-length MIG6 with M346A mutation in segment 1, co-expressed in cells
B2: MIG6(F352A): full-length MIG6 with F352A mutation in segment 1, co-expressed in cells (protein)
chain: B1 chain with A346M, F352A
modifications: left off: small tags and cut ends
notes: full-length MIG6 with F352A mutation in segment 1, co-expressed in cells
B3: MIG6(Y358A): full-length MIG6 with Y358A mutation in segment 1, co-expressed in cells (protein)
chain: B1 chain with A346M, Y358A
modifications: left off: small tags and cut ends
notes: full-length MIG6 with Y358A mutation in segment 1, co-expressed in cells
B4: MIG6(segments 1-2): longer MIG6 peptide, residues 336-412, expressed as Trp DLE fusion; M346 mutated to leucine (protein)
peptide: KSLPSYLNGVLPPTQSFAPDPKYVSSKALQRQNSEGSASKVPCILPIIENGKKVSSTHYYLLPERPPYLDKYEKFFR
B5: MIG6(segments 1-2) Y358A: MIG6 residues 336-412 bearing a mutation within segment 1 (Y358A) (protein)
peptide: B4 peptide with Y23A

Tests used:
[1] = target: T1, full-length EGFR (Homo sapiens, UniProt P00533); assay: Cell-based assay of EGFR autophosphorylation, Cos-7 cells co-transfected with EGFR and MIG6; conditions: co-expression with EGFR, EGF 50 ng/ml, western blot
T1 construct: Cos-7 cells co-transfected with constructs containing full-length EGFR and MIG6; expressed in transfected cells; host or cells: Cos-7
Excerpt: The wild-type and mutant forms of the EGFR kinase domain were expressed and purified using methods known in the art and described in Zhang et al., (2006). The 60-residue MIG6 peptide was expressed in bacteria as a glutathione S-transferase (GST)-fusion protein, purified and treated with the TEV protease to remove the GST-moiety. The wild-type and Y358A mutant MIG6(segments 1-2) peptides were fused to a Trp DLE leader peptide and expressed as inclusion bodies and purified as described. All other MIG6 peptides were produced using solid phase synthesis. […] The binding affinities between the kinase domain and fluorescein-labeled MIG6 peptides were measured by monitoring the change of fluorescence anisotropy during the titration and fitting the data to a single-site binding model. Kinase assays in solution and on vesicle were performed using methods known in the art and described herein. Cell-based inhibition assays were performed using Cos-7 cells co-transfected with constructs containing full-length EGFR and MIG6.
For cell-based assays, Cos-7 cells were co-transfected using Fugene 6 (Roche) with the DNA encoding the N-terminal Flag-tagged EGFR in pcDNA3.1 constructs and the wild-type or mutants of the MIG6 genes with a C-terminal Myc tag (also in pcDNA3.1). Cells were cultured for 36 h after transfection and serum-starved for 12 h. Cells were treated with EGF (50 ng ml^−1) for ˜5 min at 37° C., lysed and subjected to western blot analyses. The levels of total EGFR, EGFR autophosphorylation and MIG6 were probed using the anti-EGFR antibody SC03 (Santa Cruz), anti-phosphotyrosine antibody 4G10 (Upstate) and an anti-Myc antibody (Cell Signalling), respectively.

[2] = target: T2, EGFR kinase domain L834R mutant (Homo sapiens, UniProt P00533, L858R); assay: Kinase assay in solution, L834R mutant kinase domain; type: biochemical; conditions: for IC50: L834R at 200 nM, MnCl2 10 mM, read-out: IC50 for inhibition of L834R mutant kinase domain
T2 construct: DNA encoding residues 672-998 of human EGFR was cloned into pFAST BAC HT; made in house; host or cells: Sf9 insect cells (baculovirus)
Protocol: To test the role of segment 2, we produced a longer peptide (residues 336-412, MIG6(segments 1-2)), and analyzed its effect on a variant of the EGFR kinase domain that contains a mutation (L834R) that renders it constitutively active in the absence of concentration on vesicles. MIG6(segments 1-2) inhibits this mutant kinase domain with an IC50 value of ˜200 nM (FIG. 25a). MIG6(segments 1-2) bearing a mutation within segment 1 (Y358A) inhibited L834R much less efficiently (IC50˜5 μM).
(§1) Kinase assays were performed using methods known in the art and described herein. The substrate peptide was kept at 1 mM in all the experiments. The reported rates are the initial velocities normalized by the kinase concentrations. The wild-type kinase concentrations in the vesicle-based and solution-based assays were […] respectively.
(§2) A continuous enzyme-coupled kinase assay was performed to measure the kinase activity of the proteins as described in Barker et al., ((1995) Biochemistry, Vol. 34(54): 14843-51), with modifications, as described herein. The ATP concentration was kept to 0.5 mM.
(§3) The buffer used contained 10 mM MgCl2, 20 mM Tris, and pH 7.5. […] The substrate peptide was derived from the region spanning Y1173 in EGFR ([…]). All proteins used in this assay contained the N-terminal (His)6 tag unless otherwise noted.

[3] = target: T3, wild-type EGFR kinase domain in solution (Homo sapiens, UniProt P00533); assay: Kinase assay in solution, wild-type kinase domain (basal activity); type: biochemical; conditions: result in words
T3 construct: DNA encoding residues 672-998 of human EGFR was cloned into pFAST BAC HT; made in house; host or cells: Sf9 insect cells (baculovirus)
Protocol: as §1, §2, §3
The protein concentrations of the EGFR kinase domain used in the assay ranged from 3.5 to 14 μM. The total concentration of the DOGS-NTA-Ni in the bulk solution was kept to 12.5 μM in all assays with DOG-NTA-Ni-containing vesicles. For assays of the kinase domain attached to vesicles, the protein and vesicles were preincubated at 4° C. for ˜5 min.

| Molecule | EGF-induced autophosphorylation of EGFR [1] | IC50 [2] | inhibition of L834R mutant kinase domain ([2]; result in words) | inhibition of basal activity of wild-type kinase domain in solution [3] |
| --- | --- | --- | --- | --- |
| B1 | abolishes this effect |  |  |  |
| B2 | abolishes this effect |  |  |  |
| B3 | abolishes this effect |  |  |  |
| B4 |  | ~200 nM | much more strongly | much less potent |
| B5 |  | ~5000 nM |  | does not show any inhibition |
